Source: US20070238677A1 (LOCOMOGENE, published 2007)

Target: FLAG-Synoviolin (UniProt Q86TM6 1-617, limits assumed)
Assay: cell-based or functional assay

Sequence of FLAG-Synoviolin (Q86TM6 whole entry): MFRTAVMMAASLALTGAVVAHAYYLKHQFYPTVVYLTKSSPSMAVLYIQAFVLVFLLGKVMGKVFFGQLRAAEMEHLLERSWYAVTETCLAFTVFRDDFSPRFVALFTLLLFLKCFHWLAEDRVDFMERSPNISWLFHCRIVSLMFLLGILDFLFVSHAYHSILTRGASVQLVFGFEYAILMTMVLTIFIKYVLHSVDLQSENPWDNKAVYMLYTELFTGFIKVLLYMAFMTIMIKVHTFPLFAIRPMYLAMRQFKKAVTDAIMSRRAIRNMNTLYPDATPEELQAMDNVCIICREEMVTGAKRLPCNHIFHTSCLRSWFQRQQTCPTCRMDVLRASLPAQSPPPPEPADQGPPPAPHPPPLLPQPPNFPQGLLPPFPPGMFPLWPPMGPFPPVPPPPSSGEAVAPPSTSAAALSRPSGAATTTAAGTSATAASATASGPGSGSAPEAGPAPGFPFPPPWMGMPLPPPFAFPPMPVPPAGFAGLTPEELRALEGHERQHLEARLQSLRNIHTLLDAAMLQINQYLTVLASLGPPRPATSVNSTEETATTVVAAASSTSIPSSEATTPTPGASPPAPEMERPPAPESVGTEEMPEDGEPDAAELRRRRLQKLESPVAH

half-life of SEL1L/hsHRD3 (cycloheximide chase, Western blotting), in the absence of Synoviolin: 1.8 h
half-life of SEL1L/hsHRD3 (cycloheximide chase, Western blotting), with FLAG-Synoviolin co-expressed: 4.3 h
B1: SP-HA-hsHRD3B (SEL1L/hsHRD3 with an HA-tag inserted immediately after the signal peptide) (other, not shown: small tags and cut ends)
chain: GSQDESLDSKTTLTSDESVKDHTTAGRVVAGQIFLDSEESELESSIQEEEDSLKSQEGESVTEDISFLESPNPENKDYEEPKKVRKPALTAIEGTAHGEPCHFPFLFLDKEYDECTSDGREDGRLWCATTYDYKADEKWGFCETEEEAAKRRQMQEAEMMYQTGMKILNGSNKKSQKREAYRYLQKAASMNHTKALERVSYALLFGDYLPQNIQAAREMFEKLTEEGSPKGQTALGFLYASGLGVNSSQAKALVYYTFGALGGNLIAHMVLGYRYWAGIGVLQSCESALTHYRLVANHVASDISLTGGSVVQRIRLPDEVENPGMNSGMLEEDLIQYYQFLAEKGDVQAQVGLGQLHLHGGRGVEQNHQRAFDYFNLAANAGNSHAMAFLGKMYSEGSDIVPQSNETALHYFKKAADMGNPVGQSGLGMAYLYGRGVQVNYDLALKYFQKAAEQGWVDGQLQLGSMYYNGIGVKRDYKQALKYFNLASQGGHILAFYNLAQMHASGTGVMRSCHTAVELFKNVCERGRWSERLMTAYNSYKDGDYNAAVIQYLLLAEQGYEVAQSNAAFILDQREASIVGENETYPRALLHWNRAASQGYTVARIKLGDYHFYGFGTDVDYETAFIHYRLASEQQHSAQAMFNLGYMHEKGLGIKQDIHLAKRFYDMAAEASPDAQVPVFLALCKLGVVYFLQYIRETNIRDMFTQLDMDQLLGPEWDLYLMTIIALLLGTVIAYRQRQHQDMPAPRPPGPRPAPPQQEGPPEQQPPQ
